# ± gives the uncertainty stated by the source.
# B1: Triacylglycerol hydrolase DDHD2, residues 389 to 447; numbered along this chain, O94830 (parent)
# chain: TLEEDLKKLQLSEFFDIFEKEKVDKEALALCTDRDLQEIGIPLGPRKKILNYFSTRKNS
# Variants of: B1
# Assay: abundance fitness (aPCA) (normalised: wild type 0, dead -1); higher = more abundant; growth selection in yeast, the domain comes from the species named
# Conditions: Homo sapiens
row,Variant,abundance fitness
1,TLEEDDKKLQLSEFFDIFEKEKVDKEALALCTDRDLQEIGIPLGPRKKILNYFSTRKNS,0.082 ± 0.21
2,TLEEDEKKLQLSEFFDIFEKEKVDKEALALCTDRDLQEIGIPLGPRKKILNYFSTRKNS,-0.765 ± 0.12
3,TLEEDFKKLQLSEFFDIFEKEKVDKEALALCTDRDLQEIGIPLGPRKKILNYFSTRKNS,0.134 ± 0.23
4,TLEEDAKKLQLSEFFDIFEKEKVDKEALALCTDRDLQEIGIPLGPRKKILNYFSTRKNS,-1.1 ± 0.11
5,TLEEDNKKLQLSEFFDIFEKEKVDKEALALCTDRDLQEIGIPLGPRKKILNYFSTRKNS,-0.32 ± 0.37
6,TLEEDGKKLQLSEFFDIFEKEKVDKEALALCTDRDLQEIGIPLGPRKKILNYFSTRKNS,-0.698 ± 0.088
7,TLEEDCKKLQLSEFFDIFEKEKVDKEALALCTDRDLQEIGIPLGPRKKILNYFSTRKNS,-0.888 ± 0.27
8,TLEEDHKKLQLSEFFDIFEKEKVDKEALALCTDRDLQEIGIPLGPRKKILNYFSTRKNS,-0.754 ± 0.46
9,TLEEDMKKLQLSEFFDIFEKEKVDKEALALCTDRDLQEIGIPLGPRKKILNYFSTRKNS,-0.208 ± 0.12
10,TLEEDKKKLQLSEFFDIFEKEKVDKEALALCTDRDLQEIGIPLGPRKKILNYFSTRKNS,-0.335 ± 0.15
11,TLVEDLKKLQLSEFFDIFEKEKVDKEALALCTDRDLQEIGIPLGPRKKILNYFSTRKNS,-0.454 ± 0.064
12,TLREDLKKLQLSEFFDIFEKEKVDKEALALCTDRDLQEIGIPLGPRKKILNYFSTRKNS,-0.239 ± 0.049
13,TLAEDLKKLQLSEFFDIFEKEKVDKEALALCTDRDLQEIGIPLGPRKKILNYFSTRKNS,-0.142 ± 0.063
14,TLQEDLKKLQLSEFFDIFEKEKVDKEALALCTDRDLQEIGIPLGPRKKILNYFSTRKNS,-0.251 ± 0.078
15,TLWEDLKKLQLSEFFDIFEKEKVDKEALALCTDRDLQEIGIPLGPRKKILNYFSTRKNS,-0.16 ± 0.059
16,TLYEDLKKLQLSEFFDIFEKEKVDKEALALCTDRDLQEIGIPLGPRKKILNYFSTRKNS,-0.162 ± 0.1
17,TLKEDLKKLQLSEFFDIFEKEKVDKEALALCTDRDLQEIGIPLGPRKKILNYFSTRKNS,0.101 ± 0.081
18,TLGEDLKKLQLSEFFDIFEKEKVDKEALALCTDRDLQEIGIPLGPRKKILNYFSTRKNS,-0.591 ± 0.057
19,TLTEDLKKLQLSEFFDIFEKEKVDKEALALCTDRDLQEIGIPLGPRKKILNYFSTRKNS,-0.705 ± 0.089
20,TLIEDLKKLQLSEFFDIFEKEKVDKEALALCTDRDLQEIGIPLGPRKKILNYFSTRKNS,-0.325 ± 0.14
21,TLMEDLKKLQLSEFFDIFEKEKVDKEALALCTDRDLQEIGIPLGPRKKILNYFSTRKNS,-0.002 ± 0.089
22,TLPEDLKKLQLSEFFDIFEKEKVDKEALALCTDRDLQEIGIPLGPRKKILNYFSTRKNS,-0.817 ± 0.088
23,TLLEDLKKLQLSEFFDIFEKEKVDKEALALCTDRDLQEIGIPLGPRKKILNYFSTRKNS,-0.145 ± 0.058

row,Variant,abundance fitness
1,TLNEDLKKLQLSEFFDIFEKEKVDKEALALCTDRDLQEIGIPLGPRKKILNYFSTRKNS,-0.354 ± 0.12
2,TLCEDLKKLQLSEFFDIFEKEKVDKEALALCTDRDLQEIGIPLGPRKKILNYFSTRKNS,-0.748 ± 0.1
3,TLFEDLKKLQLSEFFDIFEKEKVDKEALALCTDRDLQEIGIPLGPRKKILNYFSTRKNS,-0.209 ± 0.1
4,TLHEDLKKLQLSEFFDIFEKEKVDKEALALCTDRDLQEIGIPLGPRKKILNYFSTRKNS,-0.358 ± 0.11
5,TLEWDLKKLQLSEFFDIFEKEKVDKEALALCTDRDLQEIGIPLGPRKKILNYFSTRKNS,-0.811 ± 0.081
6,TLENDLKKLQLSEFFDIFEKEKVDKEALALCTDRDLQEIGIPLGPRKKILNYFSTRKNS,-0.341 ± 0.12
7,TLEFDLKKLQLSEFFDIFEKEKVDKEALALCTDRDLQEIGIPLGPRKKILNYFSTRKNS,-0.264 ± 0.1
8,TLEQDLKKLQLSEFFDIFEKEKVDKEALALCTDRDLQEIGIPLGPRKKILNYFSTRKNS,-0.103 ± 0.072
9,TLESDLKKLQLSEFFDIFEKEKVDKEALALCTDRDLQEIGIPLGPRKKILNYFSTRKNS,-0.332 ± 0.061
10,TLERDLKKLQLSEFFDIFEKEKVDKEALALCTDRDLQEIGIPLGPRKKILNYFSTRKNS,-0.493 ± 0.056
11,TLETDLKKLQLSEFFDIFEKEKVDKEALALCTDRDLQEIGIPLGPRKKILNYFSTRKNS,-0.589 ± 0.081
12,TLEPDLKKLQLSEFFDIFEKEKVDKEALALCTDRDLQEIGIPLGPRKKILNYFSTRKNS,-0.996 ± 0.11
13,TLEGDLKKLQLSEFFDIFEKEKVDKEALALCTDRDLQEIGIPLGPRKKILNYFSTRKNS,-0.436 ± 0.074
14,TLELDLKKLQLSEFFDIFEKEKVDKEALALCTDRDLQEIGIPLGPRKKILNYFSTRKNS,-0.371 ± 0.059
15,TLEMDLKKLQLSEFFDIFEKEKVDKEALALCTDRDLQEIGIPLGPRKKILNYFSTRKNS,-0.109 ± 0.071
16,TLEDDLKKLQLSEFFDIFEKEKVDKEALALCTDRDLQEIGIPLGPRKKILNYFSTRKNS,-0.205 ± 0.1
17,TLEIDLKKLQLSEFFDIFEKEKVDKEALALCTDRDLQEIGIPLGPRKKILNYFSTRKNS,-0.432 ± 0.12
18,TLEADLKKLQLSEFFDIFEKEKVDKEALALCTDRDLQEIGIPLGPRKKILNYFSTRKNS,-0.286 ± 0.067
19,TLEVDLKKLQLSEFFDIFEKEKVDKEALALCTDRDLQEIGIPLGPRKKILNYFSTRKNS,-0.629 ± 0.072
20,TLEHDLKKLQLSEFFDIFEKEKVDKEALALCTDRDLQEIGIPLGPRKKILNYFSTRKNS,-0.33 ± 0.098
21,TLEYDLKKLQLSEFFDIFEKEKVDKEALALCTDRDLQEIGIPLGPRKKILNYFSTRKNS,-0.777 ± 0.12
22,TLEETLKKLQLSEFFDIFEKEKVDKEALALCTDRDLQEIGIPLGPRKKILNYFSTRKNS,0.15 ± 0.069
23,TLEEKLKKLQLSEFFDIFEKEKVDKEALALCTDRDLQEIGIPLGPRKKILNYFSTRKNS,-0.42 ± 0.085

row,Variant,abundance fitness
1,TLEEHLKKLQLSEFFDIFEKEKVDKEALALCTDRDLQEIGIPLGPRKKILNYFSTRKNS,0.004 ± 0.11
2,TLEECLKKLQLSEFFDIFEKEKVDKEALALCTDRDLQEIGIPLGPRKKILNYFSTRKNS,-0.033 ± 0.1
3,TLEEQLKKLQLSEFFDIFEKEKVDKEALALCTDRDLQEIGIPLGPRKKILNYFSTRKNS,-0.062 ± 0.068
4,TLEEILKKLQLSEFFDIFEKEKVDKEALALCTDRDLQEIGIPLGPRKKILNYFSTRKNS,-0.144 ± 0.11
5,TLEEVLKKLQLSEFFDIFEKEKVDKEALALCTDRDLQEIGIPLGPRKKILNYFSTRKNS,-0.343 ± 0.06
6,TLEEGLKKLQLSEFFDIFEKEKVDKEALALCTDRDLQEIGIPLGPRKKILNYFSTRKNS,-0.536 ± 0.06
7,TLEEFLKKLQLSEFFDIFEKEKVDKEALALCTDRDLQEIGIPLGPRKKILNYFSTRKNS,0.032 ± 0.1
8,TLEENLKKLQLSEFFDIFEKEKVDKEALALCTDRDLQEIGIPLGPRKKILNYFSTRKNS,-0.319 ± 0.1
9,TLEERLKKLQLSEFFDIFEKEKVDKEALALCTDRDLQEIGIPLGPRKKILNYFSTRKNS,-0.568 ± 0.061
10,TLEEPLKKLQLSEFFDIFEKEKVDKEALALCTDRDLQEIGIPLGPRKKILNYFSTRKNS,-0.904 ± 0.092
11,TLEEMLKKLQLSEFFDIFEKEKVDKEALALCTDRDLQEIGIPLGPRKKILNYFSTRKNS,-0.194 ± 0.076
12,TLEESLKKLQLSEFFDIFEKEKVDKEALALCTDRDLQEIGIPLGPRKKILNYFSTRKNS,-0.016 ± 0.062
13,TLEEALKKLQLSEFFDIFEKEKVDKEALALCTDRDLQEIGIPLGPRKKILNYFSTRKNS,-0.144 ± 0.06
14,TLEEELKKLQLSEFFDIFEKEKVDKEALALCTDRDLQEIGIPLGPRKKILNYFSTRKNS,0.123 ± 0.058
15,TLEEYLKKLQLSEFFDIFEKEKVDKEALALCTDRDLQEIGIPLGPRKKILNYFSTRKNS,-0.614 ± 0.12
16,TLEELLKKLQLSEFFDIFEKEKVDKEALALCTDRDLQEIGIPLGPRKKILNYFSTRKNS,0.021 ± 0.052
17,QLEEDLKKLQLSEFFDIFEKEKVDKEALALCTDRDLQEIGIPLGPRKKILNYFSTRKNS,-0.506 ± 0.28
18,ELEEDLKKLQLSEFFDIFEKEKVDKEALALCTDRDLQEIGIPLGPRKKILNYFSTRKNS,-0.042 ± 0.17
19,SLEEDLKKLQLSEFFDIFEKEKVDKEALALCTDRDLQEIGIPLGPRKKILNYFSTRKNS,-0.232 ± 0.12
20,PLEEDLKKLQLSEFFDIFEKEKVDKEALALCTDRDLQEIGIPLGPRKKILNYFSTRKNS,-0.999 ± 0.42
21,NLEEDLKKLQLSEFFDIFEKEKVDKEALALCTDRDLQEIGIPLGPRKKILNYFSTRKNS,0.235 ± 0.29
22,RLEEDLKKLQLSEFFDIFEKEKVDKEALALCTDRDLQEIGIPLGPRKKILNYFSTRKNS,-0.331 ± 0.16
23,LLEEDLKKLQLSEFFDIFEKEKVDKEALALCTDRDLQEIGIPLGPRKKILNYFSTRKNS,-0.488 ± 0.18

row,Variant,abundance fitness
1,MLEEDLKKLQLSEFFDIFEKEKVDKEALALCTDRDLQEIGIPLGPRKKILNYFSTRKNS,-0.475 ± 0.21
2,GLEEDLKKLQLSEFFDIFEKEKVDKEALALCTDRDLQEIGIPLGPRKKILNYFSTRKNS,0.103 ± 0.13
3,YLEEDLKKLQLSEFFDIFEKEKVDKEALALCTDRDLQEIGIPLGPRKKILNYFSTRKNS,0.138 ± 0.38
4,VLEEDLKKLQLSEFFDIFEKEKVDKEALALCTDRDLQEIGIPLGPRKKILNYFSTRKNS,-0.44 ± 0.15
5,KLEEDLKKLQLSEFFDIFEKEKVDKEALALCTDRDLQEIGIPLGPRKKILNYFSTRKNS,-0.425 ± 0.24
6,ILEEDLKKLQLSEFFDIFEKEKVDKEALALCTDRDLQEIGIPLGPRKKILNYFSTRKNS,-0.572 ± 0.21
7,DLEEDLKKLQLSEFFDIFEKEKVDKEALALCTDRDLQEIGIPLGPRKKILNYFSTRKNS,0.014 ± 0.3
8,TQEEDLKKLQLSEFFDIFEKEKVDKEALALCTDRDLQEIGIPLGPRKKILNYFSTRKNS,-0.65 ± 0.12
9,TIEEDLKKLQLSEFFDIFEKEKVDKEALALCTDRDLQEIGIPLGPRKKILNYFSTRKNS,-0.017 ± 0.094
10,TCEEDLKKLQLSEFFDIFEKEKVDKEALALCTDRDLQEIGIPLGPRKKILNYFSTRKNS,-0.621 ± 0.089
11,TFEEDLKKLQLSEFFDIFEKEKVDKEALALCTDRDLQEIGIPLGPRKKILNYFSTRKNS,-0.269 ± 0.091
12,TWEEDLKKLQLSEFFDIFEKEKVDKEALALCTDRDLQEIGIPLGPRKKILNYFSTRKNS,-0.52 ± 0.082
13,TGEEDLKKLQLSEFFDIFEKEKVDKEALALCTDRDLQEIGIPLGPRKKILNYFSTRKNS,-0.607 ± 0.071
14,TKEEDLKKLQLSEFFDIFEKEKVDKEALALCTDRDLQEIGIPLGPRKKILNYFSTRKNS,-0.426 ± 0.11
15,TMEEDLKKLQLSEFFDIFEKEKVDKEALALCTDRDLQEIGIPLGPRKKILNYFSTRKNS,0.041 ± 0.085
16,THEEDLKKLQLSEFFDIFEKEKVDKEALALCTDRDLQEIGIPLGPRKKILNYFSTRKNS,-0.818 ± 0.17
17,TAEEDLKKLQLSEFFDIFEKEKVDKEALALCTDRDLQEIGIPLGPRKKILNYFSTRKNS,-0.609 ± 0.07
18,TEEEDLKKLQLSEFFDIFEKEKVDKEALALCTDRDLQEIGIPLGPRKKILNYFSTRKNS,-0.2 ± 0.086
19,TPEEDLKKLQLSEFFDIFEKEKVDKEALALCTDRDLQEIGIPLGPRKKILNYFSTRKNS,-0.748 ± 0.092
20,TYEEDLKKLQLSEFFDIFEKEKVDKEALALCTDRDLQEIGIPLGPRKKILNYFSTRKNS,-0.695 ± 0.13
21,TDEEDLKKLQLSEFFDIFEKEKVDKEALALCTDRDLQEIGIPLGPRKKILNYFSTRKNS,-0.468 ± 0.13
